# How the values were obtained:
# Centromere B [1] = target: Centromere B (UniProt P07199); assay: AtheNA, Ab 25 ug/ml
# Histones [2] = assay: AtheNA, Ab 25 ug/ml
# Jo-1 [3] = target: Jo-1 (UniProt P12081); assay: AtheNA, Ab 25 ug/ml
# RNP (ribonucleoprotein) [4] = assay: AtheNA, Ab 25 ug/ml
# SSA [5] = assay: AtheNA, Ab 25 ug/ml
# SSB [6] = target: SSB (UniProt P05455); assay: AtheNA, Ab 25 ug/ml
# Scl-70 [7] = target: Scl-70 (UniProt P11387); assay: AtheNA, Ab 25 ug/ml
# Sm (Smith antigen) [8] = assay: AtheNA, Ab 25 ug/ml
# Centromere B [9] = target: Centromere B (UniProt P07199); assay: AtheNA, Ab 12.5 ug/ml
# Histones [10] = assay: AtheNA, Ab 12.5 ug/ml
# Jo-1 [11] = target: Jo-1 (UniProt P12081); assay: AtheNA, Ab 12.5 ug/ml
# RNP (ribonucleoprotein) [12] = assay: AtheNA, Ab 12.5 ug/ml
# SSA [13] = assay: AtheNA, Ab 12.5 ug/ml
# SSB [14] = target: SSB (UniProt P05455); assay: AtheNA, Ab 12.5 ug/ml
# Scl-70 [15] = target: Scl-70 (UniProt P11387); assay: AtheNA, Ab 12.5 ug/ml
# Sm (Smith antigen) [16] = assay: AtheNA, Ab 12.5 ug/ml
# RNP (ribonucleoprotein) [17] = assay: AtheNA, Ab 6.25 ug/ml
# [18] = target: HIV-1 CH505 transmitted/founder gp120 Env (HIV-1); assay: competition ELISA; competitor biotinylated CH240 on CH505 TF gp120
# [19] = target: HIV-1 CH505 transmitted/founder gp120 Env (HIV-1); assay: competition ELISA; competitor biotinylated CH241 on CH505 TF gp120
# [20] = target: HIV-1 CH505 transmitted/founder gp120 Env (HIV-1); assay: competition ELISA, blocking of CH239 binding to CH505 TF gp120
# [21] = target: HIV-1 CH505 transmitted/founder gp120 Env (HIV-1); assay: competition ELISA, blocking of CH106 binding to CH505 TF gp120 (self)
# Sequence of Scl-70 (P11387 whole entry): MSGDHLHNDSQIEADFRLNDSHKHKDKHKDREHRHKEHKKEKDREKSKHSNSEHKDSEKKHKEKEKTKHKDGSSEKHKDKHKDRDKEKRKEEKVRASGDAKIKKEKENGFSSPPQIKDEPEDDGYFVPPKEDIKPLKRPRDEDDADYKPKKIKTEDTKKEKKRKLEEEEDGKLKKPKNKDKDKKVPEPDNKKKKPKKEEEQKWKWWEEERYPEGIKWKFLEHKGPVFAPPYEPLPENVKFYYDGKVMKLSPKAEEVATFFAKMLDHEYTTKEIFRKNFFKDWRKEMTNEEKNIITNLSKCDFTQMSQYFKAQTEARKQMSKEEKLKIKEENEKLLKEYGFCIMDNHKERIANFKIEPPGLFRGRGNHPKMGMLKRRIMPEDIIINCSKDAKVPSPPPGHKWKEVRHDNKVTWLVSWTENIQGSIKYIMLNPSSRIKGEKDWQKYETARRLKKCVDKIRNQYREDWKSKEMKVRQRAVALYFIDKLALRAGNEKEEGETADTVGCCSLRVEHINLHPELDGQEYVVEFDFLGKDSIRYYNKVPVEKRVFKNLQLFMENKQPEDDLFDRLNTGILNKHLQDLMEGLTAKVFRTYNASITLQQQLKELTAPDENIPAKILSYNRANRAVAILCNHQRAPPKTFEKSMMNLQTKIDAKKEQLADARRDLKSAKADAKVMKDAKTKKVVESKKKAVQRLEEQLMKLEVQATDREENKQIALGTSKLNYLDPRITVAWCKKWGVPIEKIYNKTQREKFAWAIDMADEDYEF
# Sequence of Centromere B (P07199 whole entry): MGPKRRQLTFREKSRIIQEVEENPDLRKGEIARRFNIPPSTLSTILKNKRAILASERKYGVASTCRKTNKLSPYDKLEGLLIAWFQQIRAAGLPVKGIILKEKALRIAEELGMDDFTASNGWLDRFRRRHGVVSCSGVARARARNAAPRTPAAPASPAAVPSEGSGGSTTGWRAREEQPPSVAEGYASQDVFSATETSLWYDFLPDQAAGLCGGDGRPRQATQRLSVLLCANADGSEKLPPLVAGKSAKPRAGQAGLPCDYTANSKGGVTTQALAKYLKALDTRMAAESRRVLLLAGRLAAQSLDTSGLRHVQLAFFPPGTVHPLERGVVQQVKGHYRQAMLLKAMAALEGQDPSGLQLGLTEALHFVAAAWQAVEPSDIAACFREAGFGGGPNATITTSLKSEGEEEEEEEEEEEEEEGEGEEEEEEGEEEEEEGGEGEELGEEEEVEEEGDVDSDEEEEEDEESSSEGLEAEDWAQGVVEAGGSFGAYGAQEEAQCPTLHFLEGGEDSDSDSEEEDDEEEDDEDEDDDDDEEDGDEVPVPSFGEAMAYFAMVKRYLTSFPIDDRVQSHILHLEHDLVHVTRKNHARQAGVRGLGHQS
# Sequence of Jo-1 (P12081 whole entry): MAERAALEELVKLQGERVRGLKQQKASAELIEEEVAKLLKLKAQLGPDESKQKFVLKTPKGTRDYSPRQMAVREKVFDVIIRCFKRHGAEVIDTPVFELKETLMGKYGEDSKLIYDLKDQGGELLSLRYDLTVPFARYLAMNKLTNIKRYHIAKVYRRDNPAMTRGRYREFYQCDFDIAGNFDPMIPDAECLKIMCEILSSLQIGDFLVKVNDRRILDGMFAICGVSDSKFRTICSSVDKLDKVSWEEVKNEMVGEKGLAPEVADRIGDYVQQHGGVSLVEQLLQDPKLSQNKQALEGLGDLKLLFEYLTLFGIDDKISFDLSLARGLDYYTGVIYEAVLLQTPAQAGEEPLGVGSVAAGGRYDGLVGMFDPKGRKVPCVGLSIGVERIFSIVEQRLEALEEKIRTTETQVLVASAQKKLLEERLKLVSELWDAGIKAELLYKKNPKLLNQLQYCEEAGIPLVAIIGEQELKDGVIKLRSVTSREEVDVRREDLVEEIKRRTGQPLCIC
# Sequence of SSB (P05455 whole entry): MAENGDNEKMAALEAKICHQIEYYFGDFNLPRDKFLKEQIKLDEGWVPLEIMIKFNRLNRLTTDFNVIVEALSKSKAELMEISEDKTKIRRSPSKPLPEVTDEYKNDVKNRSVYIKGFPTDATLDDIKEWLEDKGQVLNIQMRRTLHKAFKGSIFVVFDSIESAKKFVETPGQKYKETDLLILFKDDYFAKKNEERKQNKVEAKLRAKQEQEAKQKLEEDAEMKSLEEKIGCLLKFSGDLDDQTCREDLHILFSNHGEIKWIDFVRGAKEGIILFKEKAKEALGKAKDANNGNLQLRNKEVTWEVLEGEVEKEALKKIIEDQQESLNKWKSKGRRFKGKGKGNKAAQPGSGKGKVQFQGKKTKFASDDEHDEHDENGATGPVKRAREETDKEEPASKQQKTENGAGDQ
substance,measurement,setting,value
CH106 (antibody),AtheNA signal (relative luminescence units),Centromere B [1],2
same,AtheNA signal (relative luminescence units),Histones [2],3
same,AtheNA signal (relative luminescence units),Jo-1 [3],2
same,AtheNA signal (relative luminescence units),RNP (ribonucleoprotein) [4],3
same,AtheNA signal (relative luminescence units),SSA [5],8
same,AtheNA signal (relative luminescence units),SSB [6],3
same,AtheNA signal (relative luminescence units),Scl-70 [7],2
same,AtheNA signal (relative luminescence units),Sm (Smith antigen) [8],1
same,AtheNA signal (relative luminescence units),Centromere B [9],2
same,AtheNA signal (relative luminescence units),Histones [10],2
same,AtheNA signal (relative luminescence units),Jo-1 [11],3
same,AtheNA signal (relative luminescence units),RNP (ribonucleoprotein) [12],2
same,AtheNA signal (relative luminescence units),SSA [13],11
same,AtheNA signal (relative luminescence units),SSB [14],5
same,AtheNA signal (relative luminescence units),Scl-70 [15],3
same,AtheNA signal (relative luminescence units),Sm (Smith antigen) [16],4
same,AtheNA signal (relative luminescence units),RNP (ribonucleoprotein) [17],1
same,IC50,[18],2.3 µg/mL
same,IC50,[19],14.3 µg/mL
same,IC50,[20],4.6 µg/mL
same,IC50,[21],2.5 µg/mL
